Data published in PMC4754705.

Molecular target: Envy
Test: SEC; gel filtration on a Superdex 200 column; 100 μL of 10 μM purified protein loaded, flow rate 0.5 ml/min, elution monitored by absorbance at 280 nm; self-association (monomer or dimer)

stoichiometry N: 2
Substance: Envy
